Test results taken from US20160002331A1.

Columns and labels:
Assay in all cases: cell-based or functional assay
[1] = biological target: Notch1 receptor with L1594P mutation (ALL-SIL cells), P46531
[2] = biological target: Notch1 receptor with L1594P/D1610V mutations (DND-41 cells), P46531
[3] = biological target: Notch1 receptor with a 17 amino acid insertion at position 1740 (Jurkat cells), P46531
[4] = biological target: Notch1 receptor with L1601P mutation (MOLT-4 cells), P46531
Chain of Notch1 receptor with L1601P mutation (MOLT-4 cells), P46531 (P46531 19-2555, stated change not applied): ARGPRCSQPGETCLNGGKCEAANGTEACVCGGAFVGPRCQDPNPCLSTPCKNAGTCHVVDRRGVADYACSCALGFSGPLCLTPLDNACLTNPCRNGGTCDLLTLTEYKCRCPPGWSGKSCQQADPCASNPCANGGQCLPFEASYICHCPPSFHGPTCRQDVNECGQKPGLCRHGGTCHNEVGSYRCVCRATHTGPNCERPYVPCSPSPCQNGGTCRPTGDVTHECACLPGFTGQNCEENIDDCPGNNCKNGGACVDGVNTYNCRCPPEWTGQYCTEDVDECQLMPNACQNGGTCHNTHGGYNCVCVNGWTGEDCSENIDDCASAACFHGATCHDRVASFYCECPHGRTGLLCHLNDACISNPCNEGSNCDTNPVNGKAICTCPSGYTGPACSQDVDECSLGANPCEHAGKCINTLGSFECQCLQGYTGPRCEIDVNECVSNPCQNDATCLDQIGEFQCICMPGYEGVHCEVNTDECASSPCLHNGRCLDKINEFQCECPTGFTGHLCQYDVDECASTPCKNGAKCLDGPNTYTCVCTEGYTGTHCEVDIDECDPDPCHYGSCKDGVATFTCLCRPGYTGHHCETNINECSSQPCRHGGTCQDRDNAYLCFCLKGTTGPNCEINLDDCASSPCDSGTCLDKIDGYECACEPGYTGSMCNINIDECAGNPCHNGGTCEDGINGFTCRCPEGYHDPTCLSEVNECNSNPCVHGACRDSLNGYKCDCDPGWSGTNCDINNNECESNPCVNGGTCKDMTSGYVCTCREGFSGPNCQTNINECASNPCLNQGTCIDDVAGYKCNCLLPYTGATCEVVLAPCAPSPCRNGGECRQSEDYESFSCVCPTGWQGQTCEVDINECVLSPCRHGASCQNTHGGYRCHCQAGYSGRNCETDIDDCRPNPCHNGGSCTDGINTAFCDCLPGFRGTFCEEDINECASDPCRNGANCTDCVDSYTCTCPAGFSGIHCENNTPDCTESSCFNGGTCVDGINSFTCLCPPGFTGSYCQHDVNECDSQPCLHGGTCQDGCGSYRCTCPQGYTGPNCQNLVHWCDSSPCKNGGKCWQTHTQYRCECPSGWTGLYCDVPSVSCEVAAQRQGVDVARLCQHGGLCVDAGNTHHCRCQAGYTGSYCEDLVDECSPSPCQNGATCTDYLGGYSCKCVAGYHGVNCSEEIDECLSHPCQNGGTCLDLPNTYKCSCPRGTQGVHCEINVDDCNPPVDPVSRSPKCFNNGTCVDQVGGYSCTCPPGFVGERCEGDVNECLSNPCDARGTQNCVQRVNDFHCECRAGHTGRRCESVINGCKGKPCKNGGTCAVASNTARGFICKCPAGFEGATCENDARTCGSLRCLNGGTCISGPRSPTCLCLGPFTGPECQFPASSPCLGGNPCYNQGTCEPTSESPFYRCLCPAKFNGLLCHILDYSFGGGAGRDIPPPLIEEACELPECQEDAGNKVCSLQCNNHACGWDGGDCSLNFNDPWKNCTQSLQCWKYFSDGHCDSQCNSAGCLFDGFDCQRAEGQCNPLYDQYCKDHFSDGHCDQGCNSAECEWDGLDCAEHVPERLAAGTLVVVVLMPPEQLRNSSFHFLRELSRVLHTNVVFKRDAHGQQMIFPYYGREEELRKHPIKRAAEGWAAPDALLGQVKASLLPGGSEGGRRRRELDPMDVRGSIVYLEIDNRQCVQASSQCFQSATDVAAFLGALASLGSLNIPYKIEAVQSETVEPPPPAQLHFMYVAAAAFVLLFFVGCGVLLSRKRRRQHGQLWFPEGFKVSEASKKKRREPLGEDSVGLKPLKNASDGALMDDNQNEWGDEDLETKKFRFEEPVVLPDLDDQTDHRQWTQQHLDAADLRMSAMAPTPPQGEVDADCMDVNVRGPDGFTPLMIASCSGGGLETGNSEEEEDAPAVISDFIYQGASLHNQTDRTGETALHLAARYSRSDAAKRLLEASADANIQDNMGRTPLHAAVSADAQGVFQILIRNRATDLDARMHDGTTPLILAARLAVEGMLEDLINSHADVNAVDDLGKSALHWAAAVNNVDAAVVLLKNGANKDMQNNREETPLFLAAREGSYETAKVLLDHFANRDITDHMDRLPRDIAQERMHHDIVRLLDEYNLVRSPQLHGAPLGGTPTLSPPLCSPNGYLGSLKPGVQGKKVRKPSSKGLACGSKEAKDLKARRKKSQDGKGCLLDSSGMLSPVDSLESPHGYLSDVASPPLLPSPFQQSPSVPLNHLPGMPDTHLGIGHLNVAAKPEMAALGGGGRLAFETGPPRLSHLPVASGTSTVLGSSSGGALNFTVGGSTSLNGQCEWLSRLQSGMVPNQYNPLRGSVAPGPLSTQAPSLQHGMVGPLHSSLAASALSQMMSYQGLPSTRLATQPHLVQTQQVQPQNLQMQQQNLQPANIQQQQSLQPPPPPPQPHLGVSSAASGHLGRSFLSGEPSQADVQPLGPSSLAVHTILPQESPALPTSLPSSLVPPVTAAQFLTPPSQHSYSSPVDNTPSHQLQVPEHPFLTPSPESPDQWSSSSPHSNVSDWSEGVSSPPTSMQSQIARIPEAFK

Chain of Notch1 receptor with L1594P mutation (ALL-SIL cells), P46531 (P46531 19-2555, stated change not applied): as above
Chain of Notch1 receptor with L1594P/D1610V mutations (DND-41 cells), P46531 (P46531 19-2555, stated change not applied): as above
Chain of Notch1 receptor with a 17 amino acid insertion at position 1740 (Jurkat cells), P46531 (P46531 19-2555): as the sequence (P46531 19-2555, stated change not applied) above

B1: rat 351-mIgG1 (antibody, V domains shown)
VH: EVQLVESGGGLVQPGRSLKVSCLASGFTFSHYGMNWIRQAPGKGLDWVASISRSGSYIRYVDTVKGRFTVSRDIAKNTLYLQMTSLRSEDTALYYCAREGQFGDYFEYWGQGVMVTVSS
VL: DIMLTQSPATLSVTPGERISLSCRASQKISTNLHWYQQKPNESPRILIKYASQTISGIPSRFSGSGSGTDFTLHINTVEPEDFSVYYCQQTNSWPLTFGSGTKLEIK
- Normalized Notch1^ICD level, ALL-SIL cells, 0.001 µg/ml antibody (relative to untreated) [1]: 0.982
- Normalized Notch1^ICD level, ALL-SIL cells, 0.01 µg/ml antibody (relative to untreated) [1]: 0.712
- Normalized Notch1^ICD level, ALL-SIL cells, 0.1 µg/ml antibody (relative to untreated) [1]: 0.08
- Normalized Notch1^ICD level, ALL-SIL cells, 1 µg/ml antibody (relative to untreated) [1]: 0.03
- Normalized Notch1^ICD level, ALL-SIL cells, 10 µg/ml antibody (relative to untreated) [1]: 0.019
- Normalized Notch1^ICD level, DND-41 cells, 0.001 µg/ml antibody (relative to untreated) [2]: 1.02
- Normalized Notch1^ICD level, DND-41 cells, 0.01 µg/ml antibody (relative to untreated) [2]: 0.988
- Normalized Notch1^ICD level, DND-41 cells, 0.1 µg/ml antibody (relative to untreated) [2]: 0.367
- Normalized Notch1^ICD level, DND-41 cells, 1 µg/ml antibody (relative to untreated) [2]: 0.322
- Normalized Notch1^ICD level, DND-41 cells, 10 µg/ml antibody (relative to untreated) [2]: 0.219
- Normalized Notch1^ICD level, Jurkat cells, 0.001 µg/ml antibody (relative to untreated) [3]: 1.53
- Normalized Notch1^ICD level, Jurkat cells, 0.01 µg/ml antibody (relative to untreated) [3]: 1.44
- Normalized Notch1^ICD level, Jurkat cells, 0.1 µg/ml antibody (relative to untreated) [3]: 1.41
- Normalized Notch1^ICD level, Jurkat cells, 1 µg/ml antibody (relative to untreated) [3]: 1.08
- Normalized Notch1^ICD level, Jurkat cells, 10 µg/ml antibody (relative to untreated) [3]: 1.2
- Normalized Notch1^ICD level, MOLT-4 cells, 0.01 µg/ml antibody (relative to untreated) [4]: 1.52
- Normalized Notch1^ICD level, MOLT-4 cells, 0.1 µg/ml antibody (relative to untreated) [4]: 0.751
- Normalized Notch1^ICD level, MOLT-4 cells, 1 µg/ml antibody (relative to untreated) [4]: 0.284
- Normalized Notch1^ICD level, MOLT-4 cells, 10 µg/ml antibody (relative to untreated) [4]: 0.082
